According to US9187525B2, “Methods of treating ophthalmic diseases using NPR-B agonists” (Shire Orphan Therapies GmbH, dated 2015):
Numbered stars: 1 amine (or outer) side, 2 acyl side, 3 side chain; on linkers, the order of the positions; unused ones are H or OH. Square brackets hold non-standard residues; d marks the D form. Primed or numbered codes have the meaning given here. Ends that are not written are not given here. * marks the point of attachment. 6182 = 5-Butyl-2H-pyrazole-3-carboxylic acid, CCCCc1cc(C(=O)*)[nH]n1; Pro(trans-4-NH2) = O=C([C@@H]1C[C@@H](N[*:3])CN1[*:1])[*:2]; Sni = (S)-nipecotic acid, O=C([C@H]1CCCN([*:1])C1)[*:2]; Hyp = O=C(O)[C@@H]1C[C@@H](O)CN1; NMeL = CN[C@@H](CC(C)C)C(=O)O; dDap(Me2)′ = not defined here; AR‑201‑48 = not defined here; AR‑201‑49 = not defined here; AR‑201‑54 = not defined here; Tle = CC(C)(C)[C@H](N)C(=O)O; dNle = CCCC[C@@H](N)C(=O)O; dOrn = NCCC[C@@H](N)C(=O)O; Octanoyl = CCCCCCCC(=O)*; Orn = NCCC[C@H](N)C(=O)O; Ac5c = NC1(C(=O)O)CCCC1; Hexanoyl = CCCCCC(=O)*; Oct = not defined here; Occ = octanoic acid; βAla = NCCC(=O)O

Target: T1, natriuretic peptide receptor-B (human)
T1 chain: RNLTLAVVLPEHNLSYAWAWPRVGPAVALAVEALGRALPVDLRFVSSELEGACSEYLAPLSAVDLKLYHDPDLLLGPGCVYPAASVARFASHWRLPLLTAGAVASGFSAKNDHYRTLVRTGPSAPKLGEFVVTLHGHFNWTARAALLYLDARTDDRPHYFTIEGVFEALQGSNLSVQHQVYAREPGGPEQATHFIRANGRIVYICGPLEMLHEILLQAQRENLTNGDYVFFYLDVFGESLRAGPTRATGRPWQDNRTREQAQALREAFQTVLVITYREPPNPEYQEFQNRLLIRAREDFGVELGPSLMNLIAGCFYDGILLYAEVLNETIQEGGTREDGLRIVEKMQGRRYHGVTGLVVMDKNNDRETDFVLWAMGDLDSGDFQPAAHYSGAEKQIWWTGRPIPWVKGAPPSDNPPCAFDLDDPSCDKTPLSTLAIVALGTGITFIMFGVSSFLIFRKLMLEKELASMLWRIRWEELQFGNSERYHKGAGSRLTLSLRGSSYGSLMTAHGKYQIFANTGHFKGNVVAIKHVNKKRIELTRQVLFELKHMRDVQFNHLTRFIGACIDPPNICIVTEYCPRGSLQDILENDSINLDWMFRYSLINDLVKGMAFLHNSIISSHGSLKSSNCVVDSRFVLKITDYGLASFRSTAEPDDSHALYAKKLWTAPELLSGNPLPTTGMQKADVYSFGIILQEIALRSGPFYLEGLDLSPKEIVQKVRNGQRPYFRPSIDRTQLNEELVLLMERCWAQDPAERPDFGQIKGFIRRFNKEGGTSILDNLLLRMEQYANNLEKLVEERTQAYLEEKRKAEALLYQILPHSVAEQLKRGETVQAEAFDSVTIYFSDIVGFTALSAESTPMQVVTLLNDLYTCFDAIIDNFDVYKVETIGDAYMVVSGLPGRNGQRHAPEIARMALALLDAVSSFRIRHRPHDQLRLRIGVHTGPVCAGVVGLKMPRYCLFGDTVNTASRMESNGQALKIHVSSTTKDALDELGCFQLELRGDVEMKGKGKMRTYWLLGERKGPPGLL
Experiment: cell-based or functional assay

For [Occ][dA]F[dR]L[Hyp][NMeL]D[Orn]I-NH2 [JAL-1327], the “EC50 group, cGMP in GTM-3 cells” value was no more than 5 µM.

For [Oct][Sni]F[dL]L[Pro(trans-4-NH2)][NMeL]DRI-NH2 (reading uncertain; also: printed as Oct-Sni-Phe-leu-Leu-Tap-Nml-Asp-Arg-Ile-NH2) [JAL-1326], the “EC50 group, cGMP in GTM-3 cells” value was no more than 1 µM.

In the case of [AR‑201‑48][dL]L[Hyp][NMeL]DRI-NH2 (reading uncertain; also: printed as (AR-201-48)-leu-Leu-Hyp-Nml-Asp-Arg-Ile-) [JAL-1293], the “EC50 group, cGMP in GTM-3 cells” value is reported as no more than 15 µM.

In the case of Octanoyl-[Sni]F[dR]L[Hyp][NMeL]DRI-NH2 [JAL-1297], the “EC50 group, cGMP in GTM-3 cells” value is reported as no more than 1 µM.

XAFRXXXDRI (Occ-ala-Phe-arg-Dap(Me2)-Hyp-Nml-Asp-Arg-Ile-NH2) [JAL-1315] was tested, and the “EC50 group, cGMP in GTM-3 cells” value was no more than 15 µM.

Octanoyl-[Sni]F[dL]L[Hyp][NMeL]DRI-NH2 [JAL-1302] was tested, and the “EC50 group, cGMP in GTM-3 cells” value was no more than 1 µM.

For XAFXLXXDRI (Occ-ala-Phe-orn(Me2)-Leu-Hyp-Nml-Asp-Arg-Ile-NH2) [JAL-1288], the “EC50 group, cGMP in GTM-3 cells” value was no more than 1 µM.

[Occ][dA]F[dL]L[Hyp][NMeL]D[Orn]I-NH2 [JAL-1328] was tested, and the “EC50 group, cGMP in GTM-3 cells” value was no more than 5 µM.

B1: JAL-1292 (peptide)
peptide: [AR‑201‑49]F[dR]L[Hyp][NMeL]DRI-NH2
modifications: reading uncertain; also: printed as (AR-201-49)-Phe-arg-Leu-Hyp-Nml-Asp-Arg-Ile-NH2
In the case of B1, the “EC50 group, cGMP in GTM-3 cells” value is reported as no more than 5 µM.

[Occ][Sni]F[dL]L[Pro(trans-4-NH2)](βAla)[NMeL]DRI-NH2 [JAL-1323] was tested, and the “EC50 group, cGMP in GTM-3 cells” value was no more than 1 µM.

With [Occ][Sni]F[dL]L[Pro(trans-4-NH2)](Gly)[NMeL]DRI-NH2 [JAL-1322] the “EC50 group, cGMP in GTM-3 cells” value was no more than 1 µM.

In the case of Octanoyl-[dA]F[dR]L[Hyp][NMeL]DR[Ac5c]-NH2 [JAL-1306], the “EC50 group, cGMP in GTM-3 cells” value is reported as no more than 5 µM.

With Hexanoyl-G[dP]FGLKLDRI-NH2 [JAL-0636] the “EC50 group, cGMP in GTM-3 cells” value was no more than 15 µM.

For XXFXLXXDRI (Occ-Sni-Phe-dap(Me2)-Leu-Hyp-Nml-Asp-Arg-Ile-NH2) [JAL-1287], the “EC50 group, cGMP in GTM-3 cells” value was no more than 1 µM.

B2: JAL-1324 (peptide)
peptide: XFRLXXDRI
HELM: PEPTIDE1{[CCCCCCCCS(=O)(=O)CCC(=O)[*:2]].F.[dR].L.[Hyp].[meL].D.R.I.[am]}$$$$V2.0; N-terminus assumed
SMILES: CCCCCCCCS(=O)(=O)CCC(=O)N[C@@H](Cc1ccccc1)C(=O)N[C@H](CCCNC(=N)N)C(=O)N[C@@H](CC(C)C)C(=O)N1C[C@H](O)C[C@H]1C(=O)N(C)[C@@H](CC(C)C)C(=O)N[C@@H](CC(=O)O)C(=O)N[C@@H](CCCNC(=N)N)C(=O)N[C@H](C(N)=O)[C@@H](C)CC
For B2, the “EC50 group, cGMP in GTM-3 cells” value was no more than 5 µM.

For XXFXLXXDRI (Occ-Sni-Phe-orn(Me2)-Leu-Hyp-Nml-Asp-Arg-Ile-NH2) [JAL-1289], the “EC50 group, cGMP in GTM-3 cells” value was no more than 1 µM.

B3: JAL-1316 (peptide)
peptide: [AR‑201‑54]F[dR]L[Hyp][NMeL]DRI-NH2
modifications: reading uncertain; also: printed as (AR-201-54)-Phe-arg-Leu-Hyp-Nml-Asp-Arg-Ile-NH2
For B3, the “EC50 group, cGMP in GTM-3 cells” value was no more than 5 µM.

[Occ][Sni]F[dL]L[Pro(trans-4-NH2)](Ac)[NMeL]DRI-NH2 [JAL-1321] was tested, and the “EC50 group, cGMP in GTM-3 cells” value was no more than 5 µM.

In the case of Octanoyl-[Sni]F[dL]L[Pro(trans-4-NH2)][NMeL]DRI-NH2 [JAL-1295], the “EC50 group, cGMP in GTM-3 cells” value is reported as no more than 1 µM.

B4: JAL-1294 (peptide)
peptide: [AR‑201‑49]F[dL]L[Hyp][NMeL]DRI-NH2
modifications: reading uncertain; also: printed as (AR-201-49)-Phe-leu-Leu-Hyp-Nml-Asp-Arg-Ile-NH2
B4 was tested, and the “EC50 group, cGMP in GTM-3 cells” value was no more than 1 µM.

In the case of 6182-[dA]F[dR]L[Hyp][NMeL]DRI-NH2 [JAL-1298], the “EC50 group, cGMP in GTM-3 cells” value is reported as no more than 5 µM.

Octanoyl-[dA]F[dR]L[Hyp][NMeL]DR[Tle]-NH2 [JAL-1305] was tested, and the “EC50 group, cGMP in GTM-3 cells” value was no more than 1 µM.

For XAFRLXXDRI (Occ-ala-Phe-arg-Leu-Hyp-Dap(Me2)-Asp-Arg-Ile-NH2) [JAL-1314], the “EC50 group, cGMP in GTM-3 cells” value was no more than 5 µM.

[Occ][dA]F[dR]L[Hyp][NMeL]TRI-NH2 [JAL-1333] was tested, and the “EC50 group, cGMP in GTM-3 cells” value was no more than 5 µM.

With [Occ][Sni]F[dDap(Me2)′]L[Pro(trans-4-NH2)][NMeL]DRI-NH2 [JAL-1325] the “EC50 group, cGMP in GTM-3 cells” value was no more than 1 µM.

With Octanoyl-[Sni]F[dOrn]L[Pro(trans-4-NH2)][NMeL]DRI-NH2 [JAL-1318] the “EC50 group, cGMP in GTM-3 cells” value was no more than 1 µM.

In the case of Octanoyl-[Sni]F[dNle]L[Pro(trans-4-NH2)][NMeL]DRI-NH2 [JAL-1319], the “EC50 group, cGMP in GTM-3 cells” value is reported as no more than 5 µM.

For Hexanoyl-[dA][dA]FGLKLDRI-NH2 [JAL-0635], the “EC50 group, cGMP in GTM-3 cells” value was no more than 15 µM.

[Occ][Sni]FGL[Pro(trans-4-NH2)][NMeL]DRI-NH2 [JAL-1320] was tested, and the “EC50 group, cGMP in GTM-3 cells” value was no more than 1 µM.

For Octanoyl-[dA]F[dL]L[Pro(trans-4-NH2)][NMeL]DRI-NH2 [JAL-1296], the “EC50 group, cGMP in GTM-3 cells” value was no more than 1 µM.

[Occ][dA]F[dR]L[Hyp][NMeL]VRI-NH2 [JAL-1331] was tested, and the “EC50 group, cGMP in GTM-3 cells” value was no more than 5 µM.

With Hexanoyl-P[dA]FGLKLDRI-NH2 [JAL-0634] the “EC50 group, cGMP in GTM-3 cells” value was no more than 15 µM.

With Octanoyl-[Sni]F[dR]L[Pro(trans-4-NH2)][NMeL]DRI-NH2 [JAL-1317] the “EC50 group, cGMP in GTM-3 cells” value was no more than 1 µM.

In the case of [AR‑201‑48][dR]L[Hyp][NMeL]DRI-NH2 (reading uncertain; also: printed as (AR-201-48)-arg-Leu-Hyp-Nml-Asp-Arg-Ile-) [JAL-1291], the “EC50 group, cGMP in GTM-3 cells” value is reported as no more than 15 µM.
